Source: US20200123260A1 (Pfizer, published 2020)
Several values for one entry are separate records, joined by “and”; a condition that tells them apart may be missing. Equal entries are not always repeated. Values belong to the binder of their own block, whether it stands above or below them.

Legend:
[1] = target: T1, human TrkB (open reading frame from nm_006180) on HEK293 cells (human, UniProt Q16620 32-822); assay: cell-based or functional assay
[2] = target: T2, human p75NTR (open reading frame from NM_002507) on HEK293 cells (human, UniProt P08138 29-427); assay: FACS on transiently transfected HEK293 cells, FITC-labeled mouse anti-human IgG
T2 construct: whole, on cells; also called hu p75NTR
T2 sequence (looked up): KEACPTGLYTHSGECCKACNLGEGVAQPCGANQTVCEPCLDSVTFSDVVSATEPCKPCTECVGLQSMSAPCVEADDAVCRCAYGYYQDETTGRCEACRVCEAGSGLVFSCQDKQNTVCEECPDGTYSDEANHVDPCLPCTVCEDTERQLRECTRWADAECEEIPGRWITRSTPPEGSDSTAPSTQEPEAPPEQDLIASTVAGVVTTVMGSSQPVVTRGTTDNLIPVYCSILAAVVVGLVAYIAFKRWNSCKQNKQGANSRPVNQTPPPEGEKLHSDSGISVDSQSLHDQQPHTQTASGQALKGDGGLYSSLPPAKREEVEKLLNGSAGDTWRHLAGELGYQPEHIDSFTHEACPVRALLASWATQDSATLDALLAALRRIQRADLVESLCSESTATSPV

[3] = target: T3, rhTrkB-ECD (R&D #397-TR/CF) (human, UniProt Q16620 32-430); assay: competition ELISA: plate coated with rhTrkB-ECD; biotinylated chimeric TOA-1 at 25 ng/ml mixed with the unlabeled antibody; streptavidin-HRP
T3 construct: extracellular domain; Bought protein; also called human TrkB-extracellular domain protein; human TrkB ectodomain protein

[4] = target: T4, mouse TrkB (nm_001025074) on HEK293 cells (mouse, UniProt P15209 32-821); assay: cell-based ELISA on transiently transfected HEK293 cells
T4 construct: whole, on cells; also called rmuTrkB-CRE

[5] = target: T5, TrkB, Cat (Felis domesticus) on 293 cells (cat (Felis domesticus)); assay: as above
T5 construct: Whole entry with signal peptide; also called cat TrkB

[6] = target: T1, human TrkB (open reading frame from …); assay: cell-based or functional assay; remark: listed apart in the source
Chimeric TrkB (d4TrkA) = target: T6, Chimeric TrkB (d4TrkA) (human); assay: cell-based ELISA on transfected 293 cells
T6 construct: TrkB residues 190-282 replaced by TrkA residues 187-281

rhTrkB-ECD-His = target: T7, rhTrkB-ECD-His (human, UniProt Q16620 32-430); assay: competition ELISA: plate coated with rhTrkB-ECD-His; biotinylated humanized TOA-1 at 25 ng/ml mixed with unlabeled huTOA-1; streptavidin-HRP
T7 construct: extracellular domain

[7] = target: T8, recombinant human TrkC-Fc (rhTrkC-ECD, R&D system, 373-TC/TF) (human, UniProt Q16288 32-429); assay: direct binding ELISA: plate coated with rhTrkC-ECD (Fc chimera) at 5 ug/ml, biotinylated antibody, streptavidin-HRP
T8 construct: extracellular domain; Bought protein; not shown: Fc part, not described

[8] = target: hTrkC in the SHC1 recruitment assay (U2OS, Discoverx Pathhunter) (human, UniProt Q16288 32-839); assay: cell-based or functional assay
[9] = target: hTrkB-a isoform fused to a small peptide epitope, in U2OS cells (Discoverx Pathhunter) (human, UniProt Q16620 32-822); assay: cell-based or functional assay
[10] = target: hTrkA in the SHC1 recruitment assay (U2OS, Discoverx Pathhunter) (human, UniProt P04629 33-796); assay: cell-based or functional assay
[11] = target: T3, rhTrkB-ECD (R&D #397-TR/CF); assay: SPR (Biacore), TrkB ectodomain immobilised on CM5, antibody injected
[12] = target: T9, Mouse TrkB ectodomain protein (R&D #1494-TB/CF) (mouse, UniProt P15209 32-429); assay: as above
T9 construct: extracellular domain; Bought protein; also called mouse TrkB-extracellular domain protein

[13] = target: T4, mouse TrkB (nm_001025074) on HEK293 …; assay: cell-based ELISA on transfected 293 cells
[14] = target: T5, TrkB, Cat (Felis domesticus) on 293 …; assay: cell-based ELISA on transfected 293 cells
[15] = target: T10, Recombinant human CCL20 (Peprotech) (human, UniProt P78556 27-96); assay: SPR stoichiometry, Ab captured on protein A, cytokine at saturation, N = 1
[16] = target: T10, Recombinant human CCL20 (Peprotech); assay: SPR stoichiometry, Ab captured on protein A, cytokine at saturation, N = 2
[17] = target: T11, Recombinant human IL13 (R&D Systems) (human, UniProt P35225 35-146, limits assumed); assay: as above
[18] = target: T11, Recombinant human IL13 (R&D Systems); assay: SPR stoichiometry, antibody captured on protein A

T10 sequence (P78556 27-96 limits assumed): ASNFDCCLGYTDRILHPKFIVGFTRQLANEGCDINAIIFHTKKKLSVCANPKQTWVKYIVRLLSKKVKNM
T1 sequence (Q16620 32-822): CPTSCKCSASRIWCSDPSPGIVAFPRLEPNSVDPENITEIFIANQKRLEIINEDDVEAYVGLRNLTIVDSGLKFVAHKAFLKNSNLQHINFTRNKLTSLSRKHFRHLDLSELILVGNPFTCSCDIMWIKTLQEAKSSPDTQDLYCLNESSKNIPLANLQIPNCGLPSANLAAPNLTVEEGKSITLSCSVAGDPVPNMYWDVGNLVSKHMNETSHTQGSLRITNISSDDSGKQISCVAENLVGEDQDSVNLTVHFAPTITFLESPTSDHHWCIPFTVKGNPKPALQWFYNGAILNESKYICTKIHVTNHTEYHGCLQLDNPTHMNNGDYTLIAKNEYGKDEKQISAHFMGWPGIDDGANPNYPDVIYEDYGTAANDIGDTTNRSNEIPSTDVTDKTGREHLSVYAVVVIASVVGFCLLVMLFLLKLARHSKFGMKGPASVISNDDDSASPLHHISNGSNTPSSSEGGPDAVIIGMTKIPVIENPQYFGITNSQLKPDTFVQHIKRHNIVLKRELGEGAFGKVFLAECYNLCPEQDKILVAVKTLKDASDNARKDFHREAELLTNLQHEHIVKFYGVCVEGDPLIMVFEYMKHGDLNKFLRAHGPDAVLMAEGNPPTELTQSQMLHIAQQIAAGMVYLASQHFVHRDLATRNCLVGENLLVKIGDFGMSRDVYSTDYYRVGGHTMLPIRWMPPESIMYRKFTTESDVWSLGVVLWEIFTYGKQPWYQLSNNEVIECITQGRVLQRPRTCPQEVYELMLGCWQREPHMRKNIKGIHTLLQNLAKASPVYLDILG
Sequence of hTrkB-a isoform fused to a small peptide epitope, in U2OS cells (Discoverx Pathhunter) (Q16620 32-430): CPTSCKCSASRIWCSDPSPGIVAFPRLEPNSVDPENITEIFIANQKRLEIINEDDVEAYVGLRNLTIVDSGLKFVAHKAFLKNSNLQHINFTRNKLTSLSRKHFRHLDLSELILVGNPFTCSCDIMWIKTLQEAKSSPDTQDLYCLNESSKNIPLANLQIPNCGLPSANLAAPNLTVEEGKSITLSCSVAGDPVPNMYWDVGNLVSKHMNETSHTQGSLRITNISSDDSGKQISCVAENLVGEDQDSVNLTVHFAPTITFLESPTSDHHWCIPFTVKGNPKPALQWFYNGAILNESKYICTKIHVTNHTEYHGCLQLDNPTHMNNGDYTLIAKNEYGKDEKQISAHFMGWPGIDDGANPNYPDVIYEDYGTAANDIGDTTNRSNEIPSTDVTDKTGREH
T3 sequence (Q16620 32-430): as above
T4 sequence (P15209 32-821): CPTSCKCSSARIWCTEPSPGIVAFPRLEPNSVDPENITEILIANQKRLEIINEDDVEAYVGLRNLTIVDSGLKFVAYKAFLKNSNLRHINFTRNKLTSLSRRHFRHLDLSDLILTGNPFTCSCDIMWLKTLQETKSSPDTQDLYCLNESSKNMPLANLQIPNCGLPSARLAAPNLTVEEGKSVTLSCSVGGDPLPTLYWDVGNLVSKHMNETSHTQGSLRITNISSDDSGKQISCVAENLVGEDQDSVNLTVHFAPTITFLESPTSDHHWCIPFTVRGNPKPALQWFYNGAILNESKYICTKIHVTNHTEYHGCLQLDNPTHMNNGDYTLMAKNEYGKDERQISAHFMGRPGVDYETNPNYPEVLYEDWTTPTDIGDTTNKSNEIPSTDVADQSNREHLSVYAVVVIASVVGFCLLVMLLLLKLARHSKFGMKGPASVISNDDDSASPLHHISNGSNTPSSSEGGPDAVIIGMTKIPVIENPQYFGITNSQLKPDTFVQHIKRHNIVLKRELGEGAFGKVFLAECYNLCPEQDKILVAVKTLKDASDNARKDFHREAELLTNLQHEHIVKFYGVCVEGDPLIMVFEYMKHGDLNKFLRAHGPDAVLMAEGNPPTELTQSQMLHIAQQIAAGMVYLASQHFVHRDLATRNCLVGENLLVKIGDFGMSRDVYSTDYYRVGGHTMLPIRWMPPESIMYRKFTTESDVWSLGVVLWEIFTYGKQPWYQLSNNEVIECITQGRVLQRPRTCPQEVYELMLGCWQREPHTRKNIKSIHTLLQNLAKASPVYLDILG
T5 sequence (chain, as listed by the source limits assumed): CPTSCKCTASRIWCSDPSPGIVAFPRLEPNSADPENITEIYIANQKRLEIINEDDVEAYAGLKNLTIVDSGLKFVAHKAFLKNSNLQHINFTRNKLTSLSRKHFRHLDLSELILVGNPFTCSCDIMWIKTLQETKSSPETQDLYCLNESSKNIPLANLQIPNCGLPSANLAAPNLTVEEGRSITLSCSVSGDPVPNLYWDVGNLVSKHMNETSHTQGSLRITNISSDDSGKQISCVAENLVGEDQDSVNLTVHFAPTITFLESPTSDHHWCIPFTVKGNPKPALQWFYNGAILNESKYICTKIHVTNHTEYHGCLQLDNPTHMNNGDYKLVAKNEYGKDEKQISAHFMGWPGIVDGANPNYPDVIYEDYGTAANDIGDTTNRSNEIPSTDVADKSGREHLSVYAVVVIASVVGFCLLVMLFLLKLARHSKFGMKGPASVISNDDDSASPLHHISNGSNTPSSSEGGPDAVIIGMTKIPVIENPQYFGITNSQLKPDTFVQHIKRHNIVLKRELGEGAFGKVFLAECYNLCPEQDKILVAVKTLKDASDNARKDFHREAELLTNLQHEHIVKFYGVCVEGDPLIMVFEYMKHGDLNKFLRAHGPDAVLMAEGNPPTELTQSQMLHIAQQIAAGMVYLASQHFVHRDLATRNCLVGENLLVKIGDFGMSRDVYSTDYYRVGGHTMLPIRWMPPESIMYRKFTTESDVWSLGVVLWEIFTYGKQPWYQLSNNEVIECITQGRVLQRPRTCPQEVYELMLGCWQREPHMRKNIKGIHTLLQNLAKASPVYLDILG
T11 sequence (P35225 35-146 limits assumed): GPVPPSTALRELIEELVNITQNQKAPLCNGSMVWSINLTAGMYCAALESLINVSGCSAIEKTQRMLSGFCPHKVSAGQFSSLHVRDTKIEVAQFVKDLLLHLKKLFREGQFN
Sequence of hTrkC in the SHC1 recruitment assay (U2OS, Discoverx Pathhunter) (Q16288 32-839): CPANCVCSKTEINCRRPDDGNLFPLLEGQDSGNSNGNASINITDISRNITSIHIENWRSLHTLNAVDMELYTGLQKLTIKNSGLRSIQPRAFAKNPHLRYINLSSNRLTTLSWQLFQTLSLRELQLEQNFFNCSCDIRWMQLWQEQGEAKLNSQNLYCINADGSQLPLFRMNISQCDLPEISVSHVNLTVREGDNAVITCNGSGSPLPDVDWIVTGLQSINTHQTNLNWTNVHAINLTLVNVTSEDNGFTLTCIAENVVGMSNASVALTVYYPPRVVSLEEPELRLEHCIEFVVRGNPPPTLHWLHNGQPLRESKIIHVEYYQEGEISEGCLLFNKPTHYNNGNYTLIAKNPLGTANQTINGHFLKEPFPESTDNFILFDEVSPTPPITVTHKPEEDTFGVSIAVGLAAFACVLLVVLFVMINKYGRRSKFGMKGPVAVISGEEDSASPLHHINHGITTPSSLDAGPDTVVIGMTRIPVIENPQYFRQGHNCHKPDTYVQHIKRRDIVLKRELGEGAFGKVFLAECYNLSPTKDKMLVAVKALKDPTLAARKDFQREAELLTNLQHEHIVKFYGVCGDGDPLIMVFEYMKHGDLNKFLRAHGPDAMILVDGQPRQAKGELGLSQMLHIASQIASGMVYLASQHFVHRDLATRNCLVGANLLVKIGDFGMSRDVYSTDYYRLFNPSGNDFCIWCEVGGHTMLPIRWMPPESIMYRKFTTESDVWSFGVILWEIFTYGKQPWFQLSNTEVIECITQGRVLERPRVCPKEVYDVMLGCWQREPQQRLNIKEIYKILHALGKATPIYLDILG
T7 sequence (Q16620 32-430): as the sequence (Q16620 32-430) above
T6 sequence (chain, as listed by the source mutant limits assumed): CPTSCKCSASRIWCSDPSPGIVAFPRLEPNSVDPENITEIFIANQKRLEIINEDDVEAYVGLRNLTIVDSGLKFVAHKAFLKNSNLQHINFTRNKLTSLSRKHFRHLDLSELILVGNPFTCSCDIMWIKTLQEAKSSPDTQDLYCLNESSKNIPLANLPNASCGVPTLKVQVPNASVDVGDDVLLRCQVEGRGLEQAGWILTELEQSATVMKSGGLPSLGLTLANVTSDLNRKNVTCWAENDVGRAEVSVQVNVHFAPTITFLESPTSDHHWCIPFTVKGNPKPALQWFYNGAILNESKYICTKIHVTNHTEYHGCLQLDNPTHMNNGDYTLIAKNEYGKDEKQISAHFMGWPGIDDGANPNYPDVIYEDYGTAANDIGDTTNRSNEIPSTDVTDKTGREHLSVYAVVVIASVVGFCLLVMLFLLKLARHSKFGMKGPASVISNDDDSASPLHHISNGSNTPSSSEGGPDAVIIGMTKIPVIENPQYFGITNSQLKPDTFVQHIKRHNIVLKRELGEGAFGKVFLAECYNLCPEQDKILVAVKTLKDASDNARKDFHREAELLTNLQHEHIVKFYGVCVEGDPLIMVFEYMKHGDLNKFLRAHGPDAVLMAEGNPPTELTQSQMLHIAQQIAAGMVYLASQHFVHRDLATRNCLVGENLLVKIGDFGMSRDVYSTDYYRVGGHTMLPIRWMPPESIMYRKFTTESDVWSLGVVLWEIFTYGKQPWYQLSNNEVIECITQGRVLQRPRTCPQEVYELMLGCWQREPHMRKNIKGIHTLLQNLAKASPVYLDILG

EC50, hTrkB Cre-luc reporter assay, lot L40042-192 [1]: 0.24 nM and 0.39 nM and 0.61 nM | EC50, hTrkB Cre-luc reporter assay, lot L42385-008 [1]: 0.25 nM and 0.37 nM | EC50, hTrkB Cre-luc reporter assay, lot L42385-024 [1]: 0.13 nM | EC50, hTrkB Cre-luc reporter assay, lot L42385-152 [1]: 0.1 nM | Fold-increase, hTrkB Cre-luc reporter assay, lot L42385-024 [1]: 5.3 fold | Fold-increase, hTrkB Cre-luc reporter assay, lot L42385-152 [1]: 4.5 fold | binding result [2]: no binding | IC50 (read off the curve) [3]: ~6 nM | EC50 [4]: 0.34 nM | EC50 [5]: 0.39 nM | Cre-luciferase reporter, maximum fold-increase (FIG. 38) [6]: 5 fold | binding result (Chimeric TrkB (d4TrkA)): binds | IC50 (read off the curve) (rhTrkB-ECD-His): ~8 nM | binding result [7]: no binding (tested: about 6.7 nM) | Fold-increase, SHC1 recruitment assay [8]: 1 fold | EC50, SHC1 recruitment assay [9]: 0.67 nM | Fold-increase, SHC1 recruitment assay [9]: 5.2 fold | Fold-increase, SHC1 recruitment assay [10]: 1.1 fold | Kd [11]: 9.4 nM | Kd [12]: 11.4 nM | EC50 [13]: 0.33 nM | EC50 [14]: 0.52 nM
B1: TAM-163 (huTOA-1 v1.0/1.4) (antibody, human IgG1, kappa, V domains shown)
VH: EVQLVESGGGLVQPGGSLRLSCAASGYSFTAYFMNWVRQAPGKGLEWVARINPNNGDTFYTQKFKGRFTISRDNAKNSLYLQMNSLRAEDTAVYYCARRDYFGAMDYWGQGTLVTVSS
VL: DIQMTQSPSSLSASVGDRVTITCRASQTISNNLHWYQQKPGKAPKLLIKSASLAISGVPSRFSGSGSGTDFTLTISSLQPEDFATYYCQQSNSWPNTFGGGTKVEIKR
notes: IgG1 with effector-function ablating CH2; Also used biotinylated; also called humanized TOA-1; Humanized TOA1

Binding Ratio [15]: 2 | Binding Ratio (measured, before normalisation) [15]: 2.15 | Binding Ratio [16]: 2 | Binding Ratio (measured, before normalisation) [16]: 2.18 | Binding Ratio [17]: 0 | binding result [18]: no binding
B2: C5 (anti-CCL20 antibody, clone C5, parental) (antibody, human IgG1, kappa, V domains shown)
VH: QVQLVQSGAEVKKPGSSVKVSCKASGGTFSSYAISWVRQAPGQGLEWMGGIIPIFGTANYAQKFQGRVTITADESTSTAYMELSSLRSEDTAVYYCAGGSITGTTPFDYWGRGTLVTVSS
VL: AIQLTQSPSSLTASVGDRVTITCRASQFASNDVGWYQQKPGKAPKLLIYAASSLQSGVPPRFSGSGSGTEFTFTISSLQPEDFATYYCLQDYTYPLTFGQGTKVEIKR
notes: also called anti-CCL20-clone5; CCL20-Clone 5
